How the values were obtained:
[1] = molecular target: T1, canine IL13 with C-terminal poly-His tag (produced in 293 cells) (canine, UniProt Q9N0W9 19-131); experiment: BLI (Octet)
T1 sequence: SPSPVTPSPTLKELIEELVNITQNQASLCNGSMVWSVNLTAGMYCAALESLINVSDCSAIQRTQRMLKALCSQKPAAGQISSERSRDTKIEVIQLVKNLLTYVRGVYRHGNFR

[2] = molecular target: T2, canine IL4 (Sino Biological Inc, Cat #70021-DNAE-5) (canine, UniProt O77762 25-132, limits assumed); experiment: cell-based or functional assay
T2 sequence (looked up): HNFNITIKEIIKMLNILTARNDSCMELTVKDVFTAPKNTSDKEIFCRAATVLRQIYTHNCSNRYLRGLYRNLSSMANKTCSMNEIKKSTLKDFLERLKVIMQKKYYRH

B1: canine IL4RECD-IL13RECD-IgGB Fc (Fc fusion)
chain: SGSVKVLHEPSCFSDYISTSVCQWKMDHPTNCSAELRLSYQLDFMGSENHTCVPENREDSVCVCSMPIDDAVEADVYQLDLWAGQQLLWSGSFQPSKHVKPRTPGNLTVHPNISHTWLLMWTNPYPTENHLHSELTYMVNVSNDNDPEDFKVYNVTYMGPTLRLAASTLKSGASYSARVRAWAQTYNSTWSDWSPSTTWLNYYEPGGGSGTETQPPVTNLSVSVENLCTVIWTWDPPEGASPNCTLRYFSHFDNKQDKKIAPETHRSKEVPLNERICLQVGSQCSTNESDNPSILVEKCTPPPEGDPESAVTELQCVWHNLSYMKCTWLPGRNTSPDTNYTLYYWHSSLGKILQCEDIYREGQHIGCSFALTNLKDSSFEQHSVQIVVKDNAGKIRPSFNIVPLTSHVKPDPPHIKRLFFQNGNLYVQWKNPQNFYSRCLSYQVEVNNSQTETNDIFYVEEAKCQNSEFEGNLEGTICFMVPGVLPDTLNTVRIRVRTNKLCYEDDKLWSNWSQAMSIGENTDPTPKRENGRVPRPPDCPKCPAPEMLGGPSVFIFPPKPKDTLLIARTPEVTCVVVDLDPEDPEVQISWFVDGKQMQTAKTQPREEQFNGTYRVVSVLPIGHQDWLKGKQFTCKVNNKALPSPIERTISKARGQAHQPSVYVLPPSREELSKNTVSLTCLIKDFFPPDIDVEWQSNGQQEPESKYRTTPPQLDEDGSYFLYSKLSVDKSRWQRGDTFICAVMHEALHNHYTQESLSHSPGK
notes: The IL4R ECD precedes the IL13R ECD, followed by canine IgG-B Fc; also called canine IL4RECD-IL13RECD-Fc; SINK
Q: What does the source list for B1?
A: binding result [1]: binds; TF1 cell proliferation assay (CellTiter-Glo luminescence), IC50 [2]: 2 nM

B2: canine IL13RECD-IL4RECD-IgGB Fc (Fc fusion)
chain: TETQPPVTNLSVSVENLCTVIWTWDPPEGASPNCTLRYFSHFDNKQDKKIAPETHRSKEVPLNERICLQVGSQCSTNESDNPSILVEKCTPPPEGDPESAVTELQCVWHNLSYMKCTWLPGRNTSPDTNYTLYYWHSSLGKILQCEDIYREGQHIGCSFALTNLKDSSFEQHSVQIVVKDNAGKIRPSFNIVPLTSHVKPDPPHIKRLFFQNGNLYVQWKNPQNFYSRCLSYQVEVNNSQTETNDIFYVEEAKCQNSEFEGNLEGTICFMVPGVLPDTLNTVRIRVRTNKLCYEDDKLWSNWSQAMSIGENTDPTGGGSGSGSVKVLHEPSCFSDYISTSVCQWKMDHPTNCSAELRLSYQLDFMGSENHTCVPENREDSVCVCSMPIDDAVEADVYQLDLWAGQQLLWSGSFQPSKHVKPRTPGNLTVHPNISHTWLLMWTNPYPTENHLHSELTYMVNVSNDNDPEDFKVYNVTYMGPTLRLAASTLKSGASYSARVRAWAQTYNSTWSDWSPSTTWLNYYEPKRENGRVPRPPDCPKCPAPEMLGGPSVFIFPPKPKDTLLIARTPEVTCVVVDLDPEDPEVQISWFVDGKQMQTAKTQPREEQFNGTYRVVSVLPIGHQDWLKGKQFTCKVNNKALPSPIERTISKARGQAHQPSVYVLPPSREELSKNTVSLTCLIKDFFPPDIDVEWQSNGQQEPESKYRTTPPQLDEDGSYFLYSKLSVDKSRWQRGDTFICAVMHEALHNHYTQESLSHSPGK
notes: also called canine IL13RECD-IL4RECD-Fc; IL13R ECD/IL4R ECD contiguous polypeptide
Q: Does B2 bind [1]?
A: Result: binds

From patent publication US20210395340A1 (KINDRED BIOSCIENCES, published 2021)
